Laboratory results published in patent US20240317834A1, “COMPOSITIONS AND METHODS FOR NEUROLOGICAL DISEASES” (CODA BIOTHERAPEUTICS, INC., priority 2020, published 2024).

Tests used:
rat DRG neurons = assay: Rheobase shift and evoked action potentials in rat DRG neurons (current clamp); assay type: cell-based
Method: Using whole cell manual patch clamp electrophysiology in HEK293 cells, rat DRG neurons and rat hippocampal neurons, the EC50 of the various engineered receptors disclosed herein to Ach and non-native ligands was measured using the Hill equation with peak current measurements from escalating doses of ligand. The rheobase shift was also measured in rat DRG neurons, which reflects the efficacy of the receptors. To calculate the rheobase, first, the amount of current that can produce an action potential was determined. Then the ligand was added, followed by a step wise increase in the current injected up to 700 pA.
For manual patch clamp experiments, Cells plated on coverslips were visualized at 10× and 40× on an inverted fluorescence microscope (Olympus). Recordings were made with an Axopatch 200B amplifier and Digidata 1550B (Molecular Devices) at RT using 3-6 MOhm glass patch electrodes (Sutter, BF150-86-10). Unless otherwise stated, recordings were made in extracellular solution (ECS) containing: 140 mM sodium chloride, 4 mM potassium chloride, 1 mM magnesium chloride, 2 mM calcium chloride, 10 mM HEPES, and 10 mM D-(+)-glucose (pH=7.3 with sodium hydroxide, osmolarity=305−315 mOsm). An 8-line reservoir (AutoMate Scientific) in combination with an 8-channel zero-dead-volume perfusion pencil (AutoMate Scientific) was used for perfusion. Data was acquired using pClamp software (Molecular Devices). Traces were either analyzed in Clampfit (Molecular Devices) or using custom Python code. Plotting and statistics were performed in GraphPad Prism.
DRG rheobase experiments were performed in current clamp mode using a potassium-based internal solution containing: 100 mM potassium D-gluconate, 28 mM potassium chloride, 1 mM magnesium chloride hexahydrate, 5 mM magnesium ATP, 10 mM HEPES, and 0.5 mM EGTA (pH=7.2 with potassium hydroxide, osmolarity=290-295 mOsm, calculated liquid junction potential=−13.5 mV). To measure DRG input resistance and rheobase, 500 ms current steps (−200 pA to 700 pA) were applied the membrane in the presence and absence of a compound. No holding current was applied to the membrane for cells included in the final datasets. Data were acquired at 10 kHz, with Bessel filter at 2 kHz and series resistance compensation at 100%. Rheobase was defined as the smallest depolarizing current injection required to cause an action potential to fire in the cell. In a subset of cells, the rheobase was ambiguous, since the action potential appeared to be graded in amplitude. In these cases, a […] of the trace clarified the rheobase. Input resistance was measured from the negative current injections, calculated as the difference in membrane potential at steady state divided by the current injection amplitude and then averaged across the four negative current steps for each recording. Resting membrane potential was measured from the first 100 ms of each sweep, averaged for each recording, and corrected for liquid junction potential. One-way ANOVA with multiple comparisons was used to test for significance of difference in rheobase and input resistance between baseline, drug, and wash conditions.

Lenti-X 293T cells = assay: YFP fluorescence quenching anion reporter plate reader assay of engineered receptors stimulated with acetylcholine or a non-native ligand; assay type: cell-based
Outline: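 Lenti-X 293T cells carrying a YFP anion reporter were transiently transfected with channel DNA and assayed the next day in HEPES-buffered ECS at pH 7.2. Ligand (acetylcholine or non-native ligand) was added in NaI-substituted ECS. Percent quench was the mean of the last 10 s relative to the 15 s pre-addition baseline.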

B1: CODA1027: engineered chimeric LGIC receptor, R101F, L131D in SEQ ID NO: 33 (protein)
chain: MRCSPGGVWLALAASLLHVSLQGEFQRKLYKELVKNYNPLERPVANDSQPLTVYFSLSLLQIMDVDEKNQVLTTNIWLQMSWTDHYLQWNVSEYPGVKTVFFPDGQIWKPDILLYNSADERFDATFHTNVDVNSSGHCQYLPPGIFKSSCPMDLKNFPMDVQTCKLKFGSWSYGGWSLDLQMQEADISGYIPNGEWDLVGIPGKRSERFYECCKEPYPDVTFTVTMRRRMGYYLIQMYIPSLLIVILSWISFWINMDAAPARVGLGITTVLTMTTQSSGSRASLPKVSYVKAIDIWMAVCLLFVFSALLEYAAVNFVSRQHKELLRFRRKRRHHKSPMLNLFQEDEAGEGRFNFSAYGMGPACLQAKDGISVKGANNSNTTNPPPAPSKSPEEMRKLFIQRAKKIDKISRIGFPMAFLIFNMFYWIIYKIVRREDVHNQ
modifications: synthetic sequence of chimeric LGIC
Rheobase Shift; Rat DRG Neurons, +TC-5619 @ EC90 (rat DRG neurons; +TC-5619 @ EC90): 638 ± 63 pA
Rheobase Shift; Rat DRG Neurons, Baseline (rat DRG neurons; Baseline, no ligand): 100 ± 23 pA
YFP fluorescence quenching using CNL001 (Lenti-X 293T cells; 1 nM CNL001, first column): 24.049%
YFP fluorescence quenching using CNL001 (Lenti-X 293T cells; 1 nM CNL001, second column): 36.755%
YFP fluorescence quenching using TC-5619/Bradanicline (Lenti-X 293T cells; 1 nM brd): −10.07%
YFP fluorescence quenching using TC-5619/Bradanicline (Lenti-X 293T cells; 3 nM brd): −0.8%
YFP fluorescence quenching using Varenicline (Lenti-X 293T cells; 3 nM var, first column): −3.367
YFP fluorescence quenching using Varenicline (Lenti-X 293T cells; 3 nM var, second column): −0.431
YFP fluorescence quenching using CNL001 (Lenti-X 293T cells; 10 nM CNL001, first column): 52.927%
YFP fluorescence quenching using CNL001 (Lenti-X 293T cells; 10 nM CNL001, second column): 61.449%
YFP fluorescence quenching using TC-5619/Bradanicline (Lenti-X 293T cells; 10 nM brd): 1.74%
YFP fluorescence quenching using TC-5619/Bradanicline (Lenti-X 293T cells; 30 nM brd): 53.95%
YFP fluorescence quenching using Facinicline (Lenti-X 293T cells; 30 nM fac): −10.05
YFP fluorescence quenching using Varenicline (Lenti-X 293T cells; 30 nM var, first column): −0.761
YFP fluorescence quenching using Varenicline (Lenti-X 293T cells; 30 nM var, second column): 2.989
YFP fluorescence quenching using CNL001 (Lenti-X 293T cells; 50 nM CNL001, first column): 67.308%
YFP fluorescence quenching using CNL001 (Lenti-X 293T cells; 50 nM CNL001, second column): 68.77%
YFP fluorescence quenching using ABT-126 (Lenti-X 293T cells; 50 nM abt): −11.89%
YFP fluorescence quenching using CNL001 (Lenti-X 293T cells; 100 nM CNL001, first column): 69.049%
YFP fluorescence quenching using CNL001 (Lenti-X 293T cells; 100 nM CNL001, second column): 71.613%
YFP fluorescence quenching using CNL002 (Lenti-X 293T cells; 100 nM CNL002): 7.75%
YFP fluorescence quenching using ABT-126 (Lenti-X 293T cells; 100 nM abt): −16.07%
YFP fluorescence quenching using AZD-0328 (Lenti-X 293T cells; 100 nM azd0328): −4.76%
YFP fluorescence quenching using ABT-126 (Lenti-X 293T cells; 300 nM abt): −11.21%
YFP fluorescence quenching using AZD-0328 (Lenti-X 293T cells; 300 nM azd0328): −7.52%
YFP fluorescence quenching using TC-5619/Bradanicline (Lenti-X 293T cells; 300 nM brd): 76.74%
YFP fluorescence quenching using Facinicline (Lenti-X 293T cells; 300 nM fac): −12.54
YFP fluorescence quenching using Varenicline (Lenti-X 293T cells; 300 nM var, first column): 2.966
YFP fluorescence quenching using Varenicline (Lenti-X 293T cells; 300 nM var, second column): 10.211
YFP fluorescence quenching using Varenicline (Lenti-X 293T cells; 500 nM var, first column): 15.278
YFP fluorescence quenching using Varenicline (Lenti-X 293T cells; 500 nM var, second column): 20.84
YFP fluorescence quenching using CNL001 (Lenti-X 293T cells; 1 uM CNL001, first column): 71.811%
YFP fluorescence quenching using CNL001 (Lenti-X 293T cells; 1 uM CNL001, second column): 69.907%
YFP fluorescence quenching using CNL002 (Lenti-X 293T cells; 1 uM CNL002): 61.97%
YFP fluorescence quenching using ABT-126 (Lenti-X 293T cells; 1 uM abt): −9.38%
YFP fluorescence quenching using TC-6987 (Lenti-X 293T cells; 1 uM tc6987): 0.88
YFP fluorescence quenching using Varenicline (Lenti-X 293T cells; 1 uM var, first column): 37.104
YFP fluorescence quenching using Varenicline (Lenti-X 293T cells; 1 uM var, second column): 42.439
YFP fluorescence quenching using TC-6987 (Lenti-X 293T cells; 10 uM tc6987): 56.27
YFP fluorescence quenching using CNL002 (Lenti-X 293T cells; 30 uM CNL002): 65.77%
YFP fluorescence quenching using AZD-0328 (Lenti-X 293T cells; 30 uM azd0328): 74.9%
YFP fluorescence quenching using Facinicline (Lenti-X 293T cells; 30 uM fac): 70.96
YFP fluorescence quenching using TC-6987 (Lenti-X 293T cells; 500 uM tc6987): 71.3
percent quench of YFP fluorescence, 30 nM TC-6683 (Lenti-X 293T cells; TC-6683 30 nM): 1.189%
percent quench of YFP fluorescence, 300 nM TC-6683 (Lenti-X 293T cells; TC-6683 300 nM): 0.939%
percent quench of YFP fluorescence, 3 uM TC-6683 (Lenti-X 293T cells; TC-6683 3 uM): 1.327%
percent quench of YFP fluorescence, 30 uM TC-6683 (Lenti-X 293T cells; TC-6683 30 uM): −0.845%
percent quench of YFP fluorescence, 100 uM TC-6683 (Lenti-X 293T cells; TC-6683 100 uM): −3.136%
percent quench of YFP fluorescence, 10 uM ach (Lenti-X 293T cells; acetylcholine 10 uM): −1.62%
percent quench of YFP fluorescence, 50 uM ach (Lenti-X 293T cells; acetylcholine 50 uM): −1.6%
percent quench of YFP fluorescence, 100 uM ach (Lenti-X 293T cells; acetylcholine 100 uM): −2.62%
percent quench of YFP fluorescence, 300 uM ach (Lenti-X 293T cells; acetylcholine 300 uM): −6.12%
percent quench of YFP fluorescence, 500 uM ach (Lenti-X 293T cells; acetylcholine 500 uM): −7.71%
percent quench of YFP fluorescence, 1 mM ach (Lenti-X 293T cells; acetylcholine 1 mM): −5.73%
percent quench of YFP fluorescence, 3 mM ach (Lenti-X 293T cells; acetylcholine 3 mM): 33.69%
